# Publication PMC2970552, “Structural Studies of the Tandem Tudor Domains of Fragile X Mental Retardation Related Proteins FXR1 and FXR2” (PLoS ONE, 2010)
# Where no end group is shown, it is not given here. Me3 = trimethyl-lysine (Kme3); Me2 = dimethyl-lysine (Kme2)
# How the values were obtained:
# FXR2 Tudor domains = FXR2 Tudor domains (Homo sapiens, UniProt P51116); assay: Fluorescence polarization binding of histone peptides to FXR2 tandem Tudor domains; conditions: bound printed in mM in the cell, fluoresceinated peptide 100 nM, 20 mM Tris-Cl pH 8.0, 50 mM NaCl, 1 mM DTT, 30 min room temperature
# FXR1 Tudor domains = FXR1 Tudor domains (Homo sapiens, UniProt P51114); assay: Fluorescence polarization binding of histone peptides to FXR1 tandem Tudor domains; conditions: bound printed in mM in the cell, fluoresceinated peptide 100 nM, 20 mM Tris-Cl pH 8.0, 50 mM NaCl, 1 mM DTT, 30 min room temperature
# [1] = biological target: T1, FXR2 tandem Tudor domains (amino acids 14 to 137 of Fragile X Mental Retardation Syndrome-related Protein 2) (UniProt P51116 14-137); assay: fluorescence polarisation; fluoresceinated peptide at 100 nM; FXR1 (stock 1.03 mM) or FXR2 (stock 2.4 mM) in serial twofold dilutions from 1/2 to 1/1024; 20 mM Tris-Cl pH 8.0, 50 mM NaCl, 1 mM DTT; room temperature, 30 minutes; conditions: both partners purified
# T1 construct: Fragile X Mental Retardation Syndrome-related Protein 2 (FXR2), amino acids 14 to 137, tandem Tudor domains; residues 13 to 136 reported for the crystal structure; Cloned in pET-28a-MHL as His6-TEV-FXR2; the purification tag was not removed from FXR2; The methods describe expression in minimal media with selenomethionine; also called FXR2 Tudor domain; NLS of FXR2; source: E. coli BL21 derivative …
# T1 sequence (P51116 14-137): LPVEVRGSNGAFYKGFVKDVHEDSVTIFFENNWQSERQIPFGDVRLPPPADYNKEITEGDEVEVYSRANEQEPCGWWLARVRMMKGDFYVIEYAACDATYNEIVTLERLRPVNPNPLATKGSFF
# [2] = biological target: T2, FXR1 tandem Tudor domains (amino acids 2 to 132 of Fragile X Mental Retardation Syndrome-related Protein 1) (UniProt P51114 2-132); assay: as above; conditions: both partners purified
# T2 construct: Fragile X Mental Retardation Syndrome-related Protein 1 (FXR1), amino acids 2 to 132, tandem Tudor domains; residues 4 to 122 seen in the crystal structure; Cloned in pET-28a-MHL as His6-TEV-FXR1; The methods describe expression in minimal media with selenomethionine; also called FXR1 Tudor domains; NLS of FXR1; source: E. coli BL21 derivative with pRARE, purified (Ni-NTA, Superdex 75); not …
# T2 sequence (P51114 2-132): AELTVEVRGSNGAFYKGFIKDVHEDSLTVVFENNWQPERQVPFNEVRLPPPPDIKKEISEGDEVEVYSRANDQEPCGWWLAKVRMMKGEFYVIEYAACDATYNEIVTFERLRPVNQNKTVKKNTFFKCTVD
Molecule,Kd [1] [µM],Kd [2] [µM],other results
C[C@H](N)C(=O)N[C@@H](CCCNC(=N)N)C(=O)N[C@H](C(=O)N[C@@H](CCCC[N+](C)(C)C)C(=O)N[C@@H](CCC(N)=O)C(=O)N[C@H](C(=O)N[C@@H](C)C(=O)N[C@@H](CCCNC(=N)N)C(=O)N[C@@H](CCCCN)C(=O)N[C@@H](CO)C(=O)N[C@H](C(=O)O)[C@@H](C)O)[C@@H](C)O)[C@@H](C)O [H3K4me3],–,–,Kd (FXR2 Tudor domains): > 1 mM
CC(C)C[C@H](NC(=O)[C@@H](NC(=O)[C@H](CCCCN)NC(=O)[C@H](CCCNC(=N)N)NC(=O)[C@H](Cc1c[nH]cn1)NC(=O)[C@H](CCCNC(=N)N)NC(=O)[C@H](CCCCN)NC(=O)[C@H](C)NC(=O)CNC(=O)CN)C(C)C)C(=O)N[C@@H](CCCNC(=N)N)C(=O)N[C@@H](CC(=O)O)C(=O)N[C@@H](CC(N)=O)C(=O)O [H4K20],–,–,Kd (FXR1 Tudor domains): > 1 mM
"GGAKRHRK(Me3)VLRD (also: fluorescein, position not given here, histone H4 tail peptide, K20 trimethylated; source: synthetic peptide (Tufts University Core Services)) [H4K20me3 peptide, fluoresceinated]",448 ± 19,692 ± 113,–
"ARTK(Me3)QTARKST (also: fluorescein, position not given here, histone H3 tail peptide, K4 trimethylated; source: synthetic peptide (Tufts University Core Services)) [H3K4me3 peptide]",–,660 ± 121,–
"GGAKRHRK(Me2)VLRD (histone H4 tail peptide, K20 dimethylated; source: synthetic peptide (Tufts University Core Services)) [H4K20me2 peptide]",633 ± 30,–,–
"GGAKRHRKVLRDN (also: fluorescein, position not given here, histone H4 tail peptide around K20, unmethylated; also called H4K20Me0; source: synthetic peptide (Tufts University Core Services)) [H4K20 peptide (unmethylated histone H4 peptide)]",1060 ± 63,–,–
